{"source": "the DeepSol protein solubility set"}
{"experiment": "soluble on expression in E. coli; label from the status in PepcDB or PDB records"}
{"sequence": "MNITQILSQELSATAAQITAAVELLDDGATVPFIARYRKEATGGLDDTQLRRLAERLQYLRELEERKAVVLKSIEEQGKLSDDLRAQIEAADNKTALEDLYLPYKPKRRTKAQIAREHGLQPLADVLLAEQSQDVEAAAQGYLNENVPDAKAALDGARAILMEQFAEDAELIGTLRDKLWNEAEIHAQVVEGKETEGEKFSDYFDHREPVRTMPSHRALAVLRGRNEGVLNIALKYQPDDTPITRQSEYEQIIACRFKVSDGHKWLRDTVRLTWRAKIFLSLELEALGRLKEAADTDAITVFARNLKDLLLVAPAGRLTTLGLDPGYRNGVKCAVVDDTGKLLDTVIVYLHQENNMLATLSRLIKQHGVKLIAIGNGTASRETDKIAGELVRGMPEMGLHKIVVSEAGASIYSASELAAREFPDLDVSLRGAVSIARRLQDPLAELVKIDPKSIGVGQYQHDVNQNQLAKSLDAVVEDCVNAVGVDVNTASAPLLARISGLNQTLAQNIVAYRDENGAFDSRKKLLKVPRLGEKTFEQAAGFLRINGGKEPLDASAVHPEAYPVVAKMLAQQGISAAELIGNRERVKQIKASDFTDERFGLPTILDILSELEKPGRDPRGEFQTASFAEGIHEISDLQVGMILEGVVSNVANFGAFVDIGVHQDGLVHISALSNKFVQDPREVVKAGDVVKVKVLEVDAARKRIALTMRLDDEPGGAKHKMPSENRSRERTAGRKPQRNDRAPANSAMADAFAKLKR", "soluble on expression in E. coli": "soluble"}
{"sequence": "SMSAPAGEPPAPVRLRKNVCYVVLAVFLSEQDEVLLIQEAKRECRGSWYLPAGRMEPGETIVEALQREVKEEAGLHCEPETLLSVEERGPSWVRFVFLARPTGGILKTSKEADAESLQAAWYPRTSLPTPLRAHDILHLVELAAQYRQQARHPLIL", "soluble on expression in E. coli": "soluble"}
{"sequence": "MEPKRSRLVVCAPEPSHAREFPDVAVFSGGRANASQAERLARAVGRVLADRGVTGGARVRLTMANCADGPTLVQINLQVGDTPLRAQAATAGIDDLRPALIRLDRQIVRASAQWCPRPWPDRPRRRLTTPAEALVTRRKPVVLRRATPLQAIAAMDAMDYDVHLFTDAETGEDAVVYRAGPSGLRLARQHHVFPPGWSRCRAPAGPPVPLIVNSRPTPVLTEAAAVDRAREHGLPFLFFTDQATGRGQLLYSRYDGNLGLITPTGDGVADGLA", "soluble on expression in E. coli": "soluble"}
{"sequence": "GPGSMVEHTGLKYQFFIRAASVDWDARDRESMAAGLCPLYQLLHCDVEKLQFVVYCFGEGEAYMFEKAIQTVTKYVDEEKCIMAVRSLRQRETKGHIIYDVAKKETQPAQFFFLLSYAWGMIAVSFPKVTNYDKWEKQKGAARIIMNCPAEMDVKAMCAWMKRGLDPDEQTKYWKMVETHMEKVGPIPRYIFDANKFLAHFAATEDALDGINPRDGESHFTHGGVRLWYSEDPSHKLVRVVRTRGEVGAEVFLNAPISVCLGRRIPLYFWKRDE", "soluble on expression in E. coli": "not soluble"}
{"sequence": "MGSDKIHHHHHHMDRQKTSQTVPAGDADDGDDTSVDEKRSPLILTEQVWRKRPAYSSPLPDDKSITLSRWTIPEQPTPVEFRSDGNEDSHIITYSLRQSSVDFWMEGQRVSNGRVTPHAVLMTGPGQPGRAVFYKVFDSIRMYLPQALLAECHEGAYGRPPNQDIVLSHPHFVADQKVRHLVEALVLVDQTDGAMGRIYVDSIGLAIGARLIALHGERRNPVDRSQGLSAWRLRHVIEYIDAHLSSPIGLAELANVAGLSRMHFARRFREVTGQTPHQYVLRCRIMRAQQLLCSPALSVTDIASALAFKTTAHFSTVFRHIVGESPTQWRKRLR", "soluble on expression in E. coli": "not soluble"}
{"sequence": "MVEKEETKKRARSSSSSSSSSSGSSSSGSSSSGSRSSSSSSSGRSRSRSPRRRDTRPPARGGRSRSPIRRGSPPRGARADRDRPMRPSPSPPRRRRPSPSPPRRDRRDRSGSRQRRRASPRRSPAARSASPAKRVVIKNLSRNVLKTHLEEIFSIYGAIKNVDLPPDRFHNHVHRGYGYVEYDNLEDAEKSIKHMDGGQIDGMAVHVEMTIGRQSVPFQRRSSPFRRRSPPPRDRMSPMRRGGRSPPPHRRRSPMGGRGSGANNMPLGGPNRFRRASRSRSPAGRRSRS", "soluble on expression in E. coli": "soluble"}
{"sequence": "MGSDKIHHHHHHMNRVILFHFHFFKNAGSAVDYILEKNFGDRFVKKEFKLWPYYENIKEVIKWIENESDAVAFSSHTARLFDSTLLERRGIKIIPIIFVRHPIIRIHSAYHYERKQVDIFRPGPVIARNTDFKGYVEIRLAIPRQEFNVSNFHVFRLADMLHGEKNMKPLEKALIALKRLPFIGLVEEFEKSMTKLEETVREYFPEFKASVIRTNVQFSPDMPLEERLKIIKNEVGKDFYKKLMEINEEDMVLWEKVVDMYKEGF", "soluble on expression in E. coli": "not soluble"}
{"sequence": "MGSDKIHHHHHHMENKVKTVAVFSGYYLPFLGGIERYTDKMTADLVKRGYRVVIVTTNHGDLPIIDEDKGRKIYRLPTKNIVKQRYPIINKNREYNTLMKYVSDENIDFVICNTRFQLTTLEGLSFAKNHHLPSIVLDHGSSHFSVNNRFLDFFGAIYEHLLTARVKHYRPDFYAVSKRSVEWLKHFNIEAKGVIYNSVSESLGSDFAGTAYLEKSADDIFITYAGRIIKEKGIELLLEAFSMSQYSENVYLQIAGDGPELAHLKEKYQSKQINFLGKLNFEQTMSLMAQTDIFVYPSMYPEGLPTSILEAGLLSSAIIATDRGGTVEVIDSPELGIIMEENTQSLHESLDLLVKDKALREKLQQNIAKRIKEHFTWEKTVEKLDYIIQKN", "soluble on expression in E. coli": "not soluble"}
{"sequence": "GAQNQDCAFFFPNQEGEQITRNCYTADGKLTNILVYRVDQAYEYPSGMEVVANYTFADAAGKTLNSGQMVARCSDGNFSMSMGDVATFPTALNMMNADVYMMGDLMNYPDAFSNPMNPGDDDEFDDGTLRLYQKGNKNNRAEISVFDREFVTTETVNTPAGAFYCTKVKYEMNIWTPKETIKGYGYEWYAPNIGIVRSEQYNNKKELQSYSVLERIKK", "soluble on expression in E. coli": "soluble"}
{"sequence": "MMNEYRFHLEKYRLGNRYTCPNCERKRCFTRYIDDEGEVSFPDNVGKCDHEHSCGYHYTPKDYFREHPDFLSKDKLPYPTRGNTQPKVVEKPISYIANAIMERSLSHYGINPLYQYLSKVFGEQETERLMKMYHVGTSYKWGGSTIYWQVDKDDKVRTGKVMLYNPKDGHRVKEPRSYVGWAHAFLHLPDFNLCQCFFGEHLLAQHPTMSVAIVESEKTAIIASHFIPNFIWLATGGMHGCLNQIAVKVLGGRDIILFPDLGATDKWKSKIPLLQSVCKRVVISNILEDNATDEQKTKGLDIADFLLMAETPQMALQRLIKQHPPLKHLIDCLGLVLVEES", "soluble on expression in E. coli": "not soluble"}
{"sequence": "MGSDKIHHHHHHMPQIGYQWLSSKCGVVPVHPFAVQSEIGRARSTSTDGDIRREIYPEPYRPTASLTDNLTFAFRHEGIHLEFLARLYALPSVRKELEAWIAREPTGAYARRACFFYEWLMPAPLDAPGVSKGNYVDALNPEEFVVGASINNTRWRVRDNLPGNRDFCPVIRRVEAVQRAETYDLAAPLAELEADYGIDLILRSAVWLTVKESRASFLIEHEQDNEDRIRRFAAVMESECGQHANPFDAGTLNVLQRGILGQSALRYGIRRSPVYVGHVARYQPVVDYIAPPWQHIEVMLAGLTRFLERTAGRAPLVRAAAASFGFVYAHPMADGNGRISRFLINDILRRDGAVPAPIILPVSATITHSTRDRAAYDKVLERFSRPLMKHYADQYTFGKTEIAEDGVEYNLHFHAYEDALPAWRYPDLTAHVGYLADVIDATLAHEMRTEARFLQANDKARRAIKDFLEAPDNDLDGIIRSVRQNGNSISNNLRKRYPLLDERPELGAQIVEAVAEAFADDKSH", "soluble on expression in E. coli": "not soluble"}
{"sequence": "MSVIYKVVTRPSDPRVPNSPKKYYPHLITLGQSVNLKYIAQKMQGYSSLSIGDIKSVIQNFVEKMKEQLLEGKSVNIEGLGVFMLTACSKGADAAKDVNAKSVDSVRIFFQANKELRITKTATRADEKLDLISLDEYLKKLNASVTPNDPDDGENGGGGNEGGDEEAPDPTV", "soluble on expression in E. coli": "not soluble"}
{"sequence": "MEANKYKIGIIGSRDIILPFSMIGFDIFPAYQEQEAINTLRKLAQSDYGVIYITEDIASMILDTIRHYDSQVVPAIILLPTHKQGLNLGLKRIEDNVEKAVGHNILLEHHHHHH", "soluble on expression in E. coli": "not soluble"}
{"sequence": "MSLKTGRSNIIAFIVPDQNPFFTEVLTEISHECQKHHLHVAVASSEENEDKQQDLIETFVSQNVSAIILVPVKSKFQMKREWLKIPIMTLDRELESTSLPSITVDNEEAAYIATKRVLESTCKEVGLLLANPNISTTIGRKNGYNKAISEFDLNVNPSLIHYSDQQLGTNAQIYSGYEATKTLLSKGIKGIVATNHLLLLGALQAIKESEKEIKKDVIIVGFDDSYWNEIYTPKLTVISQPVKEMGQVAAKMIYKLIKGKDVTSIKLSTKLIIRESCSFNEGHHHHHH", "soluble on expression in E. coli": "soluble"}
{"sequence": "MYHVPLIPRDAGREETIFRINQSLQKLLRVSDEIFDRVEHRITRIHGKAEAIDRRTEVLEKKLESLQESDKVITFTLPRQLPKLPEEPPTSTSLFRINIDTEHFPGSEELPAFRRADDHVLRPCEPIDFTYELNKPDKFFLTSQVLKEYEQKGWERYKKRLLGGLRELSRSPEHIAELFYAGTSIPAFEGVSGDFSKKALDADDDGGTSRSGRTTDELAQLRLHEQLLEDTALSSTLMQEDSLDDNHPLAFRINFNEKKKKTAKMVEMPDSLPNLKGHAHDFTLRDPEIDEDRLLDILPADDQIPEASEPTEAEADAPTTFILPPPPPPMKLDPSPQPAATPVEITEIPPIISPPAPPPPPPPPPPPPPPQTPSASSSVTFSPTKSVDGGRSDLMAAIRAAGGAGNAKLSRIAEKPKRKGKFDGILESSALLGASETPRNSAPAPDGGGGGGDLMSALSKALDARRKAINGKVEAQPPAKVSSTIPAPPNFDDEEWD", "soluble on expression in E. coli": "not soluble"}
{"sequence": "MGEYYHATVNGVVEYGAFVDLSEHVSGLIHESTYSGDPDLAVDDDVIVHLSAVRDNGDLSFEFVDPEEYRTEQRSHAYERTTADAVGLEHHHHHH", "soluble on expression in E. coli": "soluble"}
{"sequence": "MKRIVILGGGFGGLYTALRVSQLPWETQQKPEIVLVDQSDRFLFSPLLYELLTGELQSWEIAPPFIELLEGTGIRFYQAVVSGIDIDQQRVHLQDGPEIPYDRLVLTLGGETPLDLVPGAISYAYPFRTIADTYRLEERLRVLEESDAEKIRVAIVGAGYSGVELACKLADRLGERGRFRLVEISDQILRTSPDFNREAAKKALDAKGVFIDLETKVESIGQNTISLEYKNQVDTIPVDLVIWTVGTRVTNVVKSLPFKQNQRGQITNTPTLQVLDHPDIFALGDLADCIDAEGQQVPATAQAAFQQADYAAWNIWASLTQRPLLPFRLEHHHHHH", "soluble on expression in E. coli": "soluble"}
{"sequence": "MIRLIGMEDGKTLEDLVKTKIATDTKHKPRKDAVLCSEMFLSASPEYFRPHDPSLAGEWNDERMVLFAKASITWLKTNYGDKCVRAELHLDEATPHIHAYIVPINDKTKLLSHKEMFGGDGRVGSIKLSKLQDSYAQALAPLGIERGVKGSKATHTKVKEYYQAVNSEPLTAVWSNQKLEHHHHHH", "soluble on expression in E. coli": "not soluble"}
{"sequence": "GFKVIMVTDVGGLGDKSFNDGTWAGIKQAAEELGIEAKVIQSYEQSDYIPNLSKAAEEADLVFAVGFMMTNDLFKVAKQYPDTYFVGIDITPPEGQILPNVLTFTFKEQEAAFLVGYVAAAMTKTGMVGFVGGIPIPPVERFRYGYEAGIKTYSVLHKKNVKILRGYTQDFEDPKKGKDLAMSQFAEGADIVFHASGACGNGVIEAAREKFSALAGSDKLVDLIDYYTTNGKGFFAIGVDMDQDYMAPGAVLTSAMKRVD", "soluble on expression in E. coli": "soluble"}
{"sequence": "EVVVTGMQKMDKRLFTGATQQLTADNVKLDGLPDISRGLEGRAAGVSVQNVSGTFGTAPKIRVRGATSIYGSSKPLWVVDGVIMEDAIDVGPDDLSSGDAETLISSAIAGLNSDDIESFQILKDGSATSIYGARAMAGVIVVTTKKGK", "soluble on expression in E. coli": "not soluble"}
{"sequence": "MDRRFPPFSPFFNHGRRFFDDVDFDRHMIRPYWADQTMLTGHRVGDAIDVVNNDQEYNVSVDVSQFEPEELKVNIVDNQLIIEGKHNEKTDKYGQVERHFVRKYNLPTGVRPEQIKSELSNNGVLTVKYEKNQEQQPKSIPITIVPKRN", "soluble on expression in E. coli": "not soluble"}
{"sequence": "MKYDTSELCDIYQEDVNVVEPLFSNFGGRSSFGGQIITVKCFEDNGLLYDLLEQNGRGRVLLVDGGGSVRRALVDAELARLATQNEWEGLVIYGAVRQVDDLEELDIGIQAIAAIPVGAAGEGIGESDVRVNFGGVTFFSGDHLYADNTGIILSEDPLDIE", "soluble on expression in E. coli": "not soluble"}
